For assay [1], the system named is A549 lung cancer cells. Kind of assay: Real-time PCR of EMT, M2-inducing and immune evasion factors in A549 cells treated with Thiostrepton. It counts as cell-based. The following applies: 5 μM, 48 h, Mock and S25E cells. On the technique in general: In qPCR the cycle at which signal appears reflects the starting amount.
Another assay has as its system lung tissues. Description: CD68 and CD163 immunostaining and immunoblot of lung tissues of injected mice. It counts as in vivo. As to conditions: lung tissues of injected mice. As to the method: Additionally, the increase of macrophages around the tumor was examined by immunoblot using lung tissue lysates. […] Through the results of this study, it could be observed that the non-phosphorylated point mutant had the effect of inhibiting polarization into tumor-associated macrophages.
Furthermore, CD68, a marker for a broad range of macrophages, and CD163, a marker for tumor-associated macrophages, were analyzed in lung tissues of mice using immunostaining. It was determined that the expression of both CD68 and CD163 markers was increased in the lung tissues of mice injected with the FoxM1 WT protein over-expressed cells (FIG. 13D). Through the present results, it could be observed that there was an effect of promoting the polarization of M2 tumor-associated macrophages in lung cancer cells expressing the FoxM1 WT protein.
A general note: A western blot detects proteins with antibodies after separation by electrophoresis.

The test system of assay [2] is A549 cells. Kind of assay: ELISA of TGFB1 and VEGFA proteins in A549 culture medium. The following applies: medium cultured 48 h. It counts as cell-based. As to the method: (§1) In addition, after co-culturing of human monocyte THP-1 cells and cell groups over-expressing FoxM1 point mutations for 48 hours under the conditions where the previous experiments were performed, the mRNA expression levels of M2d-inducing factors IL4, IL6, IL10, and VEGFA in A549 cells expressing FoxM1 S25E were analyzed. […] The amounts of TGFB1 and VEGFA proteins in the medium cultured for 48 h with A549 cells (4×10^4 cells/ml) expressing FoxM1 variants were measured by ELISA.
Background: In an ELISA, binding on a coated surface is turned into a signal by an enzyme label.

The next assay relates to THP-1 cells. Kind of assay: M1 and M2 marker mRNA in THP-1 cells co-cultured with FoxM1-expressing A549 cells. It counts as cell-based, human. As to conditions: co-culture 48 h. An excerpt:
In the animal tissues, it was confirmed that both PD-L1 protein expression and CD274 mRNA expression were increased in cancer cells expressing FoxM1 (FIG. 5D, 5E). […] From the results described above, we investigated whether FoxM1 phosphorylated point mutant (S25E) affects the polarization of macrophages in the tumor microenvironment. After co-culturing human monocyte THP-1 cells and the cell groups over-expressing FoxM1 point mutants, M1 and M2 markers were examined in THP-1 cells.
Next, an expression suppression system for suppressing FoxM1 expression was established to observe whether the FoxM1 phosphorylated point mutant (S25E) directly affects polarization to M2 macrophages. First, to inhibit the expression of mRNA of FoxM1, a pLKO-puro.1-hFoxM1 plasmid was produced using a pLKO-puro.1 vector to construct shRNAs targeting nucleotide sequences at 709-729 positions in the human FoxM1 mRNA sequence. The following sequences can be used as target sequences for human FoxM1 shRNA production, and oligonucleotides with the following sequences can be used as primers for shRNA production. The gene accession number for human FoxM1 mRNA in PubMed is NM_001243088.2, and it contains 3507 bp. The following primers were used for shRNA production: 5′-ccgg-[…]-ctcgag-[…]-tttttg-3′ (forward primer) and 5′-aattcaaaaa-AGCAAG AGATGGAGGAAAAGG-ctcgag-[…]-3′ (reverse primer). Then, after purifying and concentrating each lentivirus for expression of the produced FoxM1 shRNA, it was constructed by infecting a lung cancer cell line, A549 cells expressing FoxM1, with the virus. The mRNA expression of M2 markers, CD163, CD206, and VEGFA, was examined after co-culturing lung cancer cells (4×10^4 cells/ml) with suppressed FoxM1 expression and THP-1 cells (1.2×10^5 cells/ml) for 48 h. […] When co-culturing with cancer cells expressing the FoxM1 variant S25E, it was confirmed that the M2 markers CD163, CD206, and VEGFA were all increased by 2 folds or more in THP1 cells compared to the control group (Mock_shCtrl) (FIG. 6D).
After co-culturing the FoxM1 WT protein over-expressed cancer cells (4×10^4 cells/ml) and THP-1 cells (1.2×10^5 cells/ml) for 48 h, the mRNA expression of M1 markers INOS and IL12B was not altered, while the mRNA expression of all the M2 markers IL10, CD163, CD206, TGFB1, and VEGFA was increased in the FoxM1 WT (FIG. 13A). Among them, CD206, TGFB1, and VEGFA had been known as markers for M2d-tumor-associated macrophages (M2d-TAM) (JAYASINGAM, Sharmilla Devi, et al., Frontiers in Oncology (2020) 9: 1512.).

For assay [3], the system named is A549 cells. Kind of assay: M2d-inducing factor mRNA in A549 cells after co-culture with THP-1 cells. It counts as cell-based. The following applies: co-culture with THP-1 48 hours. As to the method:
as §1

In assay [4] the test system is A549 cells. Kind of assay: PD-L1 (CD274) mRNA in A549 cells by real-time PCR. It counts as cell-based. As to conditions: A549 cells expressing the protein. As for the experimental part: To examine the mRNA expression levels of PD-1 and PD-L1, which are involved in solid tumor immune evasion, in THP-1 cells and the cells expressing the FoxM1 phosphorylated point mutant, the expression of PD-1 (CD279) mRNA, an immune evasion factor, was measured by qRT-PCR in THP-1 monocytes co-cultured with A549^S25E cells for 48 h (FIG. 7B). It was observed that the expression of mRNA of PD-L1 (CD274), an immune evasion factor, increased by 2 folds in the A549^S25E cells expressing the phosphorylated point mutant compared to the control group.

The subject of assay [5] is A549 lung cancer cells. Description: EMT marker expression (immunoblot, real-time PCR) in A549 cells expressing FoxM1 WT or mutants. It counts as cell-based. As to conditions: FoxM1 WT. From the text: To establish a stabilized cell line expressing WT, phosphorylation, and non-phosphorylated point mutants of FoxM1 in lung cancer cells, A549 cells were first infected with pLVX-Tet3G expressing lentivirus, and the infected cells were selected by treating with G418 for 5 days. The selected A549Tet3G cells were infected with lentiviruses expressing WT and phosphorylated point mutants (S25E, S361E, S715E) and non-phosphorylated point mutants (S25A, S361A, S715A) of FoxM1, and then treated with puromycin for 48 hours to establish a stabilized cell line. The established cells were treated with 2 μg/ml of doxycycline to induce expression of WT, phosphorylation, and non-phosphorylated point mutants of FoxM1, and the mRNA and protein expression levels of each FoxM1 point mutant were determined to confirm whether they were well expressed. As shown in FIG. 4A and FIG. 4B, it was confirmed that the WT and each point mutant form of FoxM1 were well expressed through mRNA and protein expression levels. It was observed that the expression levels of N-cadherin and vimentin were higher, and the expression levels of E-cadherin were lower in lung cancer cells expressing the phosphorylated form of FoxM1, specifically, phosphorylated at the phosphorylation site S25, compared to the cells expressing the non-phosphorylated form of FoxM1. In addition, when it was examined whether the expression of these phosphorylation and non-phosphorylated point mutants of FoxM1 affected cell proliferation, it was observed that it had no significant effect on cell proliferation (FIG. 4C).
To establish a stabilized cell line expressing FoxM1 WT in A549 lung cancer cells, first, pLVX-Tet3G expressing lentivirus was infected into cells, and the infected cells were selected by treating 500 μg/ml of G418 for 5 days. The selected A549^Tet3G cells were infected with lentiviruses expressing FoxM1 WT or Mock, and the stabilized cell lines were established by treating with 2 μg/ml of puromycin for 48 hours. After inducing the expression of FoxM1 WT by treating the established cells with 2 μg/ml of doxycycline, the protein expression was observed by immunoblot.

Regarding `C=C(NC(=O)C(=C)NC(=O)c1csc(C2=N[C@@H]3c4csc(n4)[C@H]4NC(=O)c5csc(n5)[C@H]([C@](C)(O)[C@@H](C)O)NC(=O)[C@H]5CSC(=N5)/C(=C/C)NC(=O)[C@H]([C@@H](C)O)NC(=O)c5csc(n5)[C@]3(CC2)NC(=O)[C@H](C)NC(=O)C(=C)NC(=O)[C@H](C)NC(=O)[C@H]([C@@H](C)CC)N[C@@H]2C=Cc3c([C@H](C)O)cc(nc3[C@H]2O)C(=O)O[C@@H]4C)n1)C(N)=O` [Thiostrepton], the “expression of IL6, VEGFA and CD274 (PD-L1)” value in the assay on A549 lung cancer cells [1] is recorded as “significantly reduced”; with A549 lung cancer cells [1] (listed as thiostepton), “reduced”. For the same molecule, the “expression of mesenchymal markers CDH2, vimentin, SNAI1 and SNAI2” value is “significantly reduced” in the assay on A549 lung cancer cells [1] and “reduced” with A549 lung cancer cells [1] (listed as thiostepton).

B1: FoxM1 WT: wild-type FoxM1 protein (SEQ ID NO: 1) over-expressed by lentivirus in A549 cells (protein, listed as Homo sapiens)
chain: MKTSPRRPLILKRRRLPLPVQNAPSETSEEEPKRSPAQQESNQAEASKEVAESNSCKFPAGIKIINHPTMPNTQVVAIPNNANIHSIITALTAKGKESGSSGPNKFILISCGGAPTQPPGLRPQTQTSYDAKRTEVTLETLGPKPAARDVNLPRPPGALCEQKRETCDGEAAGCTINNSLSNIQWLRKMSSDGLGSRSIKQEMEEKENCHLEQRQVKVEEPSRPSASWQNSVSERPPYSYMAMIQFAINSTERKRMTLKDIYTWIEDHFPYFKHIAKPGWKNSIRHNLSLHDMFVRETSANGKVSFWTIHPSANRYLTLDQVFKQQQKRPNPELRRNMTIKTELPLGARRKMKPLLPRVSSYLVPIQFPVNQSLVLQPSVKVPLPLAASLMSSELARHSKRVRIAPKVLLAEEGIAPLSSAGPGKEEKLLFGEGFSPLLPVQTIKEEEIQPGEEMPHLARPIKVESPPLEEWPSPAPSFKEESSHSWEDSSQSPTPRPKKSYSGLRSPTRCVSEMLVIQHRERRERSRSRRKQHLLPPCVDEPELLFSEGPSTSRWAAELPFPADSSDPASQLSYSQEVGGPFKTPIKETLPISSTPSKSVLPRTPESWRLTPPAKVGGLDFSPVQTSQGASDPLPDPLGLMDLSTTPLQSAPPLESPQRLLSSEPLDLISVPFGNSSPSDIDVPKPGSPEPQVSGLAANRSLTEGLVLDTMNDSLSKILLDISFPGLDEDPLGPDNINWSQFIPELQ
With B1, the “expression of CD68 and CD163 markers, immunostaining (in words)” value with lung tissues is recorded as “increased”. The “amounts of TGFB1 and VEGFA proteins in medium (in words)” value with A549 cells [2] is given as “markedly increased”. For the same molecule, in the assay with THP-1 cells, the “mRNA expression of M1 markers INOS and IL12B in THP-1 cells” value is reported as “not altered”; the “mRNA expression of M2 markers IL10, CD163, CD206, TGFB1 and VEGFA in THP-1 cells (in words)” value is “increased”. For the same molecule, the “mRNA expression levels of M2d-inducing factors IL4, IL6, IL10 and VEGFA in A549 cells (in words)” value in the assay with A549 cells [3] was “increased”. For the same molecule, the “mRNA expression of PD-L1 (CD274) compared to the control group” value in the assay with A549 cells [4] is listed as “about 2.3 folds”. Further, in the assay with A549 lung cancer cells [5], the “FoxM1 expression, real-time polymerase chain reaction” value stood at 4.4 folds; the “expression of E-cadherin, real-time polymerase chain reaction (reduced by)” value worked out at 0.8 folds; the “expression of N-cadherin, real-time polymerase chain reaction” value came out at 1.5 folds; the “expression of vimentin, real-time polymerase chain reaction” value is 1.7 folds. Besides, in the assay on A549 lung cancer cells [5] (doxycycline 2 μg/ml), the “expression of E-cadherin, immunoblot (decreased by)” value was 0.6 folds; the “expression of N-cadherin, immunoblot” value was determined as 2.2 folds; the “expression of vimentin, immunoblot” value turned out to be 2.8 folds.

These data come from US20250340881A1, “PHARMACEUTICAL COMPOSITION FOR TREATING CANCER COMPRISING FOXM1 MUTANT OR FOXM1 SHRNA” (Industry-University Cooperation Foundation Hanyang …, priority 2022, published 2025).
